Measured values from US20190284293A1 (Bristol-Myers Squibb, published 2019).

T1: rhCD73 bound to his-tag magnet beads (human, UniProt P21589 27-547, limits assumed)
T1 sequence: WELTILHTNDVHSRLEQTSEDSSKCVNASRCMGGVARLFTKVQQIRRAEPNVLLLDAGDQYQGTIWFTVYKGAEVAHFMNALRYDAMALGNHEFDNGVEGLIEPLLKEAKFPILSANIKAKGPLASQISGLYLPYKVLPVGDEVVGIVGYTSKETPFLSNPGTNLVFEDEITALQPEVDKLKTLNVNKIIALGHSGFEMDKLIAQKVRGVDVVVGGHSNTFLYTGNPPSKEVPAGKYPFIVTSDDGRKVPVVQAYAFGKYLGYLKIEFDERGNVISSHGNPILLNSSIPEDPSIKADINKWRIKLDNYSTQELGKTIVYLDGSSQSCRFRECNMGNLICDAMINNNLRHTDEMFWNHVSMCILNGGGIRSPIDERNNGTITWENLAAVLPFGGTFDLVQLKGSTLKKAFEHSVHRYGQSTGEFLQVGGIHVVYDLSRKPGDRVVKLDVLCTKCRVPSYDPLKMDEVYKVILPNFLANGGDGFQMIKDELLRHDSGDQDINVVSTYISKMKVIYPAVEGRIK

T2: cyno CD73, Sino Biological Inc Cat#90192-C08H, bound to his-tag magnet beads (cynomolgus, UniProt P21589 27-547 (human entry))
T2 chain: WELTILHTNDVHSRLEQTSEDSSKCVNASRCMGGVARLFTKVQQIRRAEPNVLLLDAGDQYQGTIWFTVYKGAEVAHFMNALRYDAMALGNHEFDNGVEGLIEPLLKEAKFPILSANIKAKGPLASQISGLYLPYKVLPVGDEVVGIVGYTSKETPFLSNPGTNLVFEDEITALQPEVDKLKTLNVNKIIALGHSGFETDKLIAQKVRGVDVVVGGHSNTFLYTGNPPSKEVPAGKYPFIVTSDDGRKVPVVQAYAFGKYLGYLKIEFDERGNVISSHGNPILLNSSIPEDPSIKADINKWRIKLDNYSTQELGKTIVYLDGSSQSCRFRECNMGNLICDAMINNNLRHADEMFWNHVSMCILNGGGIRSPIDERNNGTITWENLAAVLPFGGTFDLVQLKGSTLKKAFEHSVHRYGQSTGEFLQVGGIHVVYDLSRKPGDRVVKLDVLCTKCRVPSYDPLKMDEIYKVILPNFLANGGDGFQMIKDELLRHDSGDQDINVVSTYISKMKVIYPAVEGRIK

T3: human CD73 on cells (human, UniProt P21589 27-549)
T3 sequence: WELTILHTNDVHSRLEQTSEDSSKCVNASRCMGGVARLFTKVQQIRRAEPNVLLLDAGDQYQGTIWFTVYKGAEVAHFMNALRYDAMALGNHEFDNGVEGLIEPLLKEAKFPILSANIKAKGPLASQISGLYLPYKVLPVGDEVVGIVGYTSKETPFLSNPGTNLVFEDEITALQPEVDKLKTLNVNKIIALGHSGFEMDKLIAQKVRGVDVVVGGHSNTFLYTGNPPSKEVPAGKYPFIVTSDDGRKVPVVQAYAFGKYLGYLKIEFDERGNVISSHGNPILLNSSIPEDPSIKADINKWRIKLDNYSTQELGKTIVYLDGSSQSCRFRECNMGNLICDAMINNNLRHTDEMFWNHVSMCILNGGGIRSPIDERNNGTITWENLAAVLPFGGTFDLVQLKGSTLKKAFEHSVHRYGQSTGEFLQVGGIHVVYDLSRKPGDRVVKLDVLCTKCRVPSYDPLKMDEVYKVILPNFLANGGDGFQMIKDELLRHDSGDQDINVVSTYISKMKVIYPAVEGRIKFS

T4: cynomolgus CD73 on transfected CHO cells (cynomolgus, UniProt P21589 27-549 (human entry))
T4 construct: also called CHO-cynoCD73; CHO-Cynomolgus CD73 transfectants
T4 chain: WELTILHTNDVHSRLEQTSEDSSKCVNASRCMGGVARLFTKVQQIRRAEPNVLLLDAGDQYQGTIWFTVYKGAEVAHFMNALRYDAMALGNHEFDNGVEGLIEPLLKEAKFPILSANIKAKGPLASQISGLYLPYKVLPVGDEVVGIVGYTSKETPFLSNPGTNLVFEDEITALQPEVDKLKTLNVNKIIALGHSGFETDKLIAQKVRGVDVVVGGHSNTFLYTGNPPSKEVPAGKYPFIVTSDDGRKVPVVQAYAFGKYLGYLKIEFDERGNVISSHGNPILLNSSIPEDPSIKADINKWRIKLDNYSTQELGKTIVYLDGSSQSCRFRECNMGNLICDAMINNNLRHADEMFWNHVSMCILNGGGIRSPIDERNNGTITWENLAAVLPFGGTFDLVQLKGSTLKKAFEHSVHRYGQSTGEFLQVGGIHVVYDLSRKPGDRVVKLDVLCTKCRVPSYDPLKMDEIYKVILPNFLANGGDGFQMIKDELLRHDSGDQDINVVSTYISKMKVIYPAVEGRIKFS


Assays:
[1] = target: T1, rhCD73 bound to his-tag magnet beads; assay: cell-based or functional assay
[2] = target: T2, cyno CD73, Sino Biological Inc …; assay: cell-based or functional assay
[3] = target: T3, human CD73 on cells; assay: cell-based or functional assay
[4] = target: T3, human CD73 on cells; assay: cell-based or functional assay; remark: listed apart in the source
[5] = target: T3, human CD73 on cells; assay: flow cytometry, Calu6 cells
Procedure: (§1) Titration binding curves were produced with CD73 antibodies on Calu6 (CD73 endogenous expressors; human pulmonary adenocarcinoma cell line), DMS114 (CD73 negative; human small cell lung cancer cell line), CHO-cynoCD73 (cynoCD73-transfected) and CHO-K1 (cynoCD73 negative), cells using Alexa Fluor® 647 Goat Anti-Human IgG (H+L) as a secondary antibody, Invitrogen Cat#A-21445, using the following method: 100000 cells were plated in 100 uL PBS+2% FBS per well and blocked for 20 min. Using a U-bottom 96-deep well plate, volumes of antibody and PBS+2% FBS were combined as dictated by Table 12 below.
(§2) An 8-point serial dilution was performed by diluting a sixth of the volume (90 uL) into […], PBS+2% FBS. The cell plate was spun down for 5 minutes at 1500 rpm. 100 uL of diluted antibody was added per well of the plate. 100 uL PBS+2% FBS were added to all other wells. […] The plates were spun down at 1500 rpm for 5 min and washed in 200 uL PBS+2% FBS per well. The plates were washed again, resuspended in 200 uL 2% FBS in PBS per well and the samples were run.

[6] = target: T4, cynomolgus CD73 on transfected CHO cells; assay: flow cytometry, CHO-cynoCD73 cells
Procedure: as §1, §2

[7] = target: T3, human CD73 on cells; assay: binding titration on Calu6 cells, average of 2-6 experiments

| Binder | EC50 (nM), inhibition of bead-bound human CD73 enzymatic activity [1] [nM] | EC50 (nM), enzymatic inhibition of cyno CD73 (bead-bound) [2] [nM] | EC50 Calu6 inhibition [3] [nM] | EC50 (nM), high-content internalization assay, Calu6, 2 h [4] [nM] | Ymax, high-content internalization assay (percent of 100 nM 11F11) [4] [%] | EC50 [5] [nM] | EC50 [6] [nM] | EC50 [7] [nM] |
| --- | --- | --- | --- | --- | --- | --- | --- | --- |
| CD73.10-IgG2-C219S-IgG1.1f (antibody, also called CD73.10-IgG2CS-IgG1.1f; CD73.10-IgG2S-IgG1.1f) heavy: QVQLVESGGGVVQPGRSLRLSCAASGFTFSNYGMHWVRQAPGKGLEWVAVIWYDESNKYYPDSVKGRFTISRDNSKNTLYLQMNSLRAEDTAVYYCARGGSSWYPDSFDIWGQGTMVTVSSASTKGPSVFPLAPCSRSTSESTAALGCLVKDYFPEPVTVSWNSGALTSGVHTFPAVLQSSGLYSLSSVVTVPSSNFGTQTYTCNVDHKPSNTKVDKTVERKSCVECPPCPAPPVAGPSVFLFPPKPKDTLMISRTPEVTCVVVDVSHEDPEVKFNWYVDGVEVHNAKTKPREEQYNSTYRVVSVLTVLHQDWLNGKEYKCKVSNKALPSSIEKTISKAKGQPREPQVYTLPPSREEMTKNQVSLTCLVKGFYPSDIAVEWESNGQPENNYKTTPPVLDSDGSFFLYSKLTVDKSRWQQGNVFSCSVMHEALHNHYTQKSLSLSPG light: not shown | 4.84 | 9.94 | 0.77 | 0.87 | 99 | 0.85 | 1.27 | 0.85 |
| CD73.10-IgG2-C219S (antibody, also called CD73.10-IgG2CS; CD73.10-IgG2S) heavy: QVQLVESGGGVVQPGRSLRLSCAASGFTFSNYGMHWVRQAPGKGLEWVAVIWYDESNKYYPDSVKGRFTISRDNSKNTLYLQMNSLRAEDTAVYYCARGGSSWYPDSFDIWGQGTMVTVSSASTKGPSVFPLAPCSRSTSESTAALGCLVKDYFPEPVTVSWNSGALTSGVHTFPAVLQSSGLYSLSSVVTVPSSNFGTQTYTCNVDHKPSNTKVDKTVERKSCVECPPCPAPPVAGPSVFLFPPKPKDTLMISRTPEVTCVVVDVSHEDPEVQFNWYVDGVEVHNAKTKPREEQFNSTFRVVSVLTVVHQDWLNGKEYKCKVSNKGLPAPIEKTISKTKGQPREPQVYTLPPSREEMTKNQVSLTCLVKGFYPSDIAVEWESNGQPENNYKTTPPMLDSDGSFFLYSKLTVDKSRWQQGNVFSCSVMHEALHNHYTQKSLSLSPG light: not shown | 7.54 | 8.78 | 0.84 | 0.67 | 99 | 0.85 | 1.24 | 0.85 |
